Experimental findings from publication PMC7498358 are described below.

For this data set, the target named is YB-1 CSDex (Homo sapiens, UniProt P67809 51-140). Description: NMR HSQC titration.
Sequence of YB-1 CSDex (P67809 51-140): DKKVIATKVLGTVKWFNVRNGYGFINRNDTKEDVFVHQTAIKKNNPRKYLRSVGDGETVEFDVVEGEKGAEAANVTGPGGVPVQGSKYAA

B1: CACC dsDNA (dsDNA)
DNA 1: TCAACACCTC
DNA 2: GAGGTGTTGA
Consider B1, for which the binding result is on record as “binds”.
